According to US20080311125A1:

Molecular target: HIV-1 gp120 (HIV-1)
Test: ELISA, coated gp120; binding relative to scytovirin

“SD2 (residues 49-95 of scytovirin with a substitution of serine at position 55) (peptide)” was tested, and the percent binding in comparison to scytovirin was 50%.
